The subject of data set [1] is S. aureus 8325-4 cells. In words: Transmission electron microscopy of the lytic effect. The class given is cell-based, Staphylococcus aureus. The settings on record: 50 U of ClyS for 1-3 min. The method, then: However, unlike other lysins, the sites of degradation on the cell was not restricted to the septal or polar positions but was randomly distributed.
S. aureus strain 8325-4 was grown to log-phase, centrifuged and resuspended in PBS to an absorbance at 600 nm of 1.0. The bacterial suspension was incubated with 50 U of ClyS at room temperature. […] The suspension was pelleted by centrifugation and overlaid with 2.5% glutaraldehyde in 0.1 M cacodylate buffer (pH 7.4). The samples were then postfixed in 1% osmium tetroxide, block stained with uranyl acetate and processed according to standard procedures by The Rockefeller University Electron Microscopy Service.

A further data set has as its system staphylococci. The data set can be described thus: Lytic activity of chimera lysates against staphylococci. The class given is cell-based. The settings on record: qualitative.
The test system of the next data set is S. aureus. The data set can be described thus: Lytic assays of chimeric lysins against S. aureus. Format: cell-based, Staphylococcus aureus. Particulars: for lytic/killing activity against S. aureus: qualitative.
For data set [2], the system named is S. aureus 8325-4 cells. In words: Spectrophotometric loss of turbidity (OD600) lytic assay. Format: cell-based, Staphylococcus aureus. The method, then: The unit activity of ClyS was defined by measuring the spectrophotometric loss of turbidity, indicative of cell lysis, of S. aureus 8325-4 cells upon adding serial dilutions of ClyS. In our assays, 5 micrograms of ClyS corresponded to 1 U of lytic activity. When 50 U of ClyS was added to exponentially growing 8325-4 cells the OD600 dropped to baseline within 5 min (FIG. 7). To confirm that the observed cell lysis corresponds to cell death, staphylococcal viability was determined by enumerating aliquots from the lytic reaction at various time points.
ClyS activity was measured as previously described (Daniel et al, 2001), with some modifications. Briefly, S. aureus strain 8325-4 was grown to an OD600 of 0.25-0.3, centrifuged, and resuspended in PB to a final OD600 of 0.8-1.0. Two-fold serial dilutions of purified ClyS […] were added to 100 μl of bacterial suspension in 96-well plates (Costar) and the decrease in OD600 was monitored by a Spectramax Plus 384 spectrophotometer (Molecular Devices) over 30 min at 37° C. ClyS activity in units per milliliter was defined as the reciprocal of the highest dilution of lysin that decreased the absorbance by 50% in 15 minutes.

Data set [3] relates to group A, B, C and E streptococci, S. gordonli, S. salivarius, S. uberis, Bacillus cereus, Pseudomonas aeruginosa and E. coli. The data set can be described thus: Muralytic activity on bacterial strains, Set III. Format: cell-based, mix of Gram-positive and Gram-negative bacteria. Particulars: 50 U of ClyS, 15 minutes. The method, then:
Muralytic activity of ClyS was tested on a number of bacterial strains representing a variety of species which were divided into sets (Table 1 and FIG. 10). Set I consisted of S. aureus strains including methicillin-sensitive S. aureus (MSSA) and MRSA. ClyS was active against MSSA and MRSA although differences were observed between S. aureus strains. Set II consisted of different species of staphylococci including S. epidermidis, S. simulans and S. sciuri. […] Set III consisted of a mix of Gram-positive and Gram-negative bacteria including representatives of group A, B, C and E streptococci, oral streptococcal species including S. gordonli, and S. salivarius, as well as S. uberis, Bacillus cereus, Pseudomonas aeruginosa and E. coli.
The viability assay of ClyS was tested as previously described (Nelson et al, 2001). Briefly, log phase cultures of S. aureus strain 8325-4 were resuspended in PB to OD600 of 0.8-1.0. 50 U of ClyS or the corresponding volume of PB was added to bacterial cells and aliquots were removed, serially diluted, and plated at 1, 5, 10, 30, and 60 minutes to assess the viability of the treated and control cells. All experiments were performed in triplicate. The activity of ClyS on various bacterial strains was tested as described previously (Schuch et al, 2002). Briefly, log phase bacterial cells were treated with 50 U of ClyS at 37° C. for 15 minutes. […]

A short description of data set [4]: Solubility of expressed lysins and chimeras. The method, then: In another embodiment, the lysin is a chimeric protein that comprises an endopeptidase domain of the S. aureus Twort lysin upstream of the phiNM3 CWT domain (SEQ ID NO:1). The chimeric polypeptide is preferably sufficiently soluble in phosphate buffered saline (PBS). Preferred levels of solubility in PBS for the chimeric lysins is at least about 1 mg/ml and more preferably at least about 3 mg/mL. in PBS. […] One example of such a lysin is provided in SEQ ID NO:2 (AD127), shown in FIG. 5A and consisting of the Twort lysin endopeptidase domain attached to the phiNM3 CWT domain (SEQ ID NO:1). The isolated polypeptide of SEQ ID NO:2 (AD 127) was constructed by engineering S. epidermidis autolysin amidase and Twort lysin endopeptidase domains upstream of phiNM3 CWT domain, respectively.
Traditionally, Bacillus-specific lysins are expressed at high levels and are soluble in E. coli. Therefore, our first attempt was to engineer a 16-amino acid peptide (4) that is conserved in several S. aureus-specific lysins (Lu J Z, Fujiwara T, Komatsuzawa H, Sugai M, Sakon J. 2006. Cell wall-targeting domain of glycylglycine endopeptidase distinguishes among peptidoglycan cross-bridges. (Lue et al. (2006) J. Biol. Chem. 281(1):549-58) The catalytic domain of the Bacillus-specific lysin PlyB was used to generate chimera AD 103 (FIG. 4) (SEQ ID NO: 13). The chimeras were tested for expression, solubility and activity. Then the entire C-terminal CWT domain of PlyB (6) was replaced by the putative C-terminal domain of S. aureus phage Twort lysin (8) to obtain AD 105 (SEQ ID NO: 14). […] Since the lysostaphin catalytic domain […] (10) in AD 112 was of bacterial origin, we attempted to engineer a phage-derived catalytic domain upstream of the lysostaphin CWT. For this, the endopeptidase domain in Twort lysin (14) was used to construct chimera AD 119 (SEQ ID NO:3).

B1: ClyS: chimeric lysin: Twort lysin endopeptidase domain attached to the phiNM3 CWT domain, 280 amino acid residues (protein)
chain: METLKQAESYIKSKVNTGTDFDGLYGYQCMDLAVDYIYHVTDGKIRMWGNAKDAINNSFGGTATVYKNYPAFRPKYGDVVVWTTGNFATYGHIAIVTNPDPYGDLQYVTVLEQNWNGNGIYKTELATIRTHDYTGITHFIRPNFATESSVKKKDTKKKPKPSNRDGLNKDKIVYDRTNINYNMVLQGKSASKITVGSKAPYNLKWSKGAYFNAKIDGLGATSATRYGDNRTNYRFDVGQAVYAPGTLIYVFEIIDGWCRIYWNNHNEWIWHERLIVKEVF
modifications: Chimeric of Staphylococcus aureus bacteriophage Twort domain and Staphylococcus aureus phage phiNM3 CWT domain
notes: chimeric lysin: Twort lysin endopeptidase domain attached to the phiNM3 CWT domain, 280 amino acid residues
On to B1, for which the “lytic effect seen by transmission electron microscopy” value in the data set on S. aureus 8325-4 cells [1] is “localized degradation of the cell wall”. Further, the “lytic activity against staphylococci” value with staphylococci is listed as “active”. The activity result in the data set with S. aureus (AD 127 from the pAD138 construct) is recorded as “very high”. For the same molecule, the “lytic/killing activity against S. aureus” value is reported as “very high activity” in the data set on S. aureus (listed as AD 127) and “little or no killing activity” in the data set on S. aureus (listed as AD127). Besides, the “time for OD600 to drop to baseline” value in the data set on S. aureus 8325-4 cells [2] (50 U of ClyS, exponentially growing 8325-4 cells) was no more than 5 min. Further, the “amount corresponding to 1 U of lytic activity” value with S. aureus 8325-4 cells [2] (unit = reciprocal of highest dilution that decreased absorbance by 50% in 15 minutes) was 5 micrograms. Moreover, in data set [3], the “muralytic activity against Set III organisms” value is “no activity”. For the same molecule, the solubility entry in data set [4] is recorded as “very high”.

The values are drawn from patent publication US11827911B2, “Chimeric bacteriophage lysin with activity against Staphylococci bacteria” (priority 2008, dated 2023).
